In patent US20220251232A1 (INSERM INSTITUT NATIONAL DE LA SANT ET DE LA RECHERCHE M …, published 2022):
Numbering of substitutions follows the chain as printed. Each block holds one binder with its values, some of them ahead of it.

Target: T1, human CD25 (Interleukin-2 receptor alpha chain) (human, UniProt P01589 22-272)
T1 sequence (looked up): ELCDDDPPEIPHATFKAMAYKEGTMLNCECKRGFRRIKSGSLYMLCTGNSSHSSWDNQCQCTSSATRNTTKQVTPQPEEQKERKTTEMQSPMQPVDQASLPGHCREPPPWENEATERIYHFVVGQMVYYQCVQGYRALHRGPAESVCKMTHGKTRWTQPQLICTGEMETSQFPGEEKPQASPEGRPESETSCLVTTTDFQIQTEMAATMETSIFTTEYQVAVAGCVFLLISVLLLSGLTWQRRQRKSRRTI
Test: cell-based or functional assay

IL-2 induced T-cell proliferation, Mean (control = 100): 81.7
B1: ALD25H2 anti-CD25 antibody (antibody, V domains shown)
VH: EVQLVESGGGLVQPGRSMKLSCAASGFTFSNHAMAWVRQAPKKGLEWVAYISYDGDNTYYRDSVKGRFTISRDNAKSTLYLQIDSLRSEDTATYYCTTGGNSGYDWGQGVMVTVSS
VL: DIQMTQSPSFLSASVGDRVTINCKASQNVNKFVNWYQQKLGEAPRRLIYGTNSLQTGIPSRFSGSGSGTDYTLTISSLQPEDVATYFCQQYSSWPWTFGGGTKLELK

IL-2 induced T-cell proliferation, Mean (control = 100): 78.1
B2: ALD25H1 anti-CD25 antibody (antibody, V domains shown)
VH: B1 VH with T28P, N31D, E46Q, K76R, Y80F, I83M
VL: B1 VL with V33L

IL-2 induced T-cell proliferation, Mean (control = 100): 73
B3: ALD25H4 anti-CD25 antibody (antibody, V domains shown)
VH: B1 VH with A24V, K76Q, I83M
VL: B1 VL with A25G, V33L, S92T

IL-2 induced T-cell proliferation, Mean (control = 100): 55
B4: 7G7B6 monoclonal antibody (IL-2 non-competitive anti-CD25 antibody) (antibody, V domains shown)
VH: EVQLVESGGDLVQPRGSLKLSCAASGFTFSSYGMSWVRQTPDKRLELVATINGYGDTTYYPDSVKGRFTISRDNAKNTLYLQMSSLKSEDTAMYFCARDRDYGNSYYYALDYWGQGTSVTVSS
VL: QIVLSQSPAILSASPGERVTMTCRASSSVSFMHWLQQKPGSSPKPWIYATSNLASGVSARFSGSGSGTSYSLTITRVEAEDAATYYCQQWSSNPPAFGGGTKLEIK
